Laboratory results published in patent US8399414B2, “Analgesics” (NRL Pharma, Inc., priority 2002, dated 2013).

Assays:
pepsin = format: in vitro ADME
From the text: (§1) Preferably the composition of this invention, as a composition for an oral formulation, is made into an enteric-coated dosage form. The inventors of this invention hypothesize that there exists a structure, which can be referred to as a lactoferrin sensor, on the mucosa of the intestinal tract, as described in detail in International Patent Application, PCT/JP01/10212 (WO02/41912).

IL-10 production = assay: LPS-stimulated cytokine production in rats with adjuvant arthritis, ELISA (Example 8); format: in vivo, rat; settings: LPS 1 mg/kg i.p., blood 3 hours later
Description: (§2) It is known that in adjuvant arthritis models, the production of cytokines due to the LPS stimulation increases considerably, compared with normal animals, because the reactivity of their immune system increases due to chronic inflammation.
(§3) One mg/kg of LPS was administered intraperitoneally to rats with adjuvant arthritis to stimulate the production of cytokines. Three hours after the LPS administration, the blood was collected from each rat and the quantities of cytokines were measure by ELISA. The groups to be administered a single dose of lactoferrin (groups B and C) were given orally 0.5% CMC once daily until the experiment day to allow the experiment conditions to match those of the group to be administered lactoferrin for 19 consecutive days. The group to be administered lactoferrin for 19 consecutive days (group E) was administered orally lactoferrin once daily from the very day when treated with adjuvant. The design of the experiment is shown in Table 2 and the results in FIG. 14.

TNF-α production = assay: as above; format: in vivo, rat; settings: LPS 1 mg/kg i.p., blood 3 hours later
Description: as §2, §3

male Wistar rats [1] = assay: formalin test, comparison with diclofenac (Example 3); format: in vivo, rat; settings: i.p. 30 minutes before formalin
Description: Male Wistar rats 6 weeks of age were used. The rats in one group were given bovine lactoferrin and those in another group were given a control drug, diclofenac, by intraperitoneal administration 30 minutes before injecting formalin into their foot pads. Their responses to pain are shown in FIG. 5: the phase 1 pain (left) and the phase 2 pain (right).
Lactoferrin and diclofenac were administered intraperitoneally 30 minutes before formalin injection both in the control group (n=4) and the diclofenac group (n=5). The pain inhibiting effect of diclofenac disappeared about 50 minutes after formalin injection, whereas the pain inhibiting effect of lactoferrin lasted long and even 60 minutes after formalin injection.

rodent animals [2] = assay: acetic acid rising test; format: in vivo; settings: administration before test
From the text: (§4) The inventors carried out, using rodent animals, animal tests related to pain: (1) hot plate test, (2) formalin test and (3) acetic acid rising test to examine the influences of lactoferrin administration on the animals' sensation of pain.

male Wistar rats [3] = assay: formalin test, intrathecal administration, comparison with morphine (Example 12); format: in vivo; settings: 30 minutes before formalin, bLF 0.1 to 100 μg/rat, rhLF 100 μg/rat, morphine 10 μg/rat, FIGS. 15
Description: Groups consisting of male Wistar rats 6 weeks of age (n=6 to 8) were intrathecally administered 0.1 to 100 μg/rat of bovine lactoferrin (bLF), 100 μg/rat of recombinant human lactoferrin (rhLF) or 10 μg/rat of morphine (Mor) 30 minutes before formalin was injected into their foot pads. The results are shown in FIGS. 15: the number of the foot-lifting times in the phase 1 pain (left graph) and the number of the foot-lifting times in the phase 2 pain (right graph).

[4] = test system: adjuvant arthritis models; assay: adjuvant arthritis, Flexion test after a single oral dose (Example 7); format: in vivo, rat
Description: On day 25 after the adjuvant treatment, the rats were divided into 6 groups and administered once BSA (bovine serum albumin) or LF (lactoferrin), and after 3 hours, the pain index was measured for each group by Flexion test in the manner as in Example 5. Thirty minutes before Flexion test, saline solution, morphine or naloxone was administered subcutaneously.

rats [5] = assay: single dose acute toxicity study (GLP), oral; format: in vivo; settings: maximum dose of 5 g/kg
From the text: (§5) In toxicity studies in beagles and rats carried out by the inventors in accordance with GLP, lactofferin extracted from milk (manufactured by Tatua Milk Industry Co., Ltd., New Zealand, purity: 87%) was non-toxic after oral administration at physical limit doses. […] Accordingly, lactoferrin is probably non-toxic after oral administration and has almost ideal characteristics as a therapy for cancer. It is likely that lactoferrin defends opportunistic infections frequently occurring in immunocompromised hosts such as patients with cancer, prevents carcinogenesis, inhibits the growth of cancer, prevents metastasis, and destructs a metastatic lesion. Further, it is probably highly safe when administered to patients declining in immunopotency, such as aged patients.

beagles [6] = assay: single dose acute toxicity study (GLP), oral; format: in vivo; settings: maximum dose of 5 g/kg
From the text: as §5

rats [7] = assay: subacute toxicity study, dosing period of 3 months, oral; format: in vivo; settings: maximum dose of 2 g/kg
From the text: as §5

beagles [8] = assay: as above; format: in vivo; settings: maximum dose of 2 g/kg
From the text: as §5

male Wistar rats [9] = assay: ethanol and restriction stress gastric ulcer (Example 4); format: in vivo, rat; settings: 1% bovine lactoferrin in feed for 8 weeks; relative to control group
Description: Sixteen male Wistar rats (6 weeks of age) were randomly divided into two groups, and the rats in one group (n=8) were fed standard feed powder for rodent animals (CLEA JAPAN, INC., CE-2) while those in the other group (n=8) fed CE-2 with 1% bovine lactoferrin added thereto for 8 weeks. Eight weeks later, the rats were deprived of food for one night, administered orally and forcibly 5 ml/kg weight of 50% ethanol, and subsequently inflicted with restriction stress for 2 hours. Two 2 hours later, the stomach of each rat was excised and “number of hemorrhagic spots”, “area of hemorrhage”, “number of ulcers”, “number of large ulcers” and “areas of ulcers” on the gastric mucosa were measured.

[10] = test system: adjuvant arthritis rat model; format: in vivo; settings: LF 100 mg/kg oral sid or bid, Dex 1 mg/kg i.p. sid
Description: The preventive/therapeutic effects against arthritis of orally administered lactoferrin (LF) and the mechanism of the action were examined using an adjuvant arthritis rat model as an animal model with rheumatoid arthritis.
Evaluation of the above described effects was performed by measuring the change in volume of foot due to swelling, Flexion test (pain in joints caused in flexion and extension test), and the production of cytokine by the stimulation of lipopolysaccharide.
Adjuvant was injected subcutaneously into the sole of the right hind leg of each rat, and the volume of the feet was measured once a day to obtain the swelling rate of the feet of both hind legs. The test substance was suspended in 0.5% CMC and administered once or twice a day for 18 consecutive days starting from the first dose 3 hours before adjuvant treatment (day 0). On 4th and 10th days after treating with adjuvant, the swollen tarsal joint of each rat was extended 10 times and the number of times each rat screamed due to the stimulation of pain sensation caused by flexing and extending its tarsal joint was measured.

male Wistar rats [11] = assay: formalin test, intraperitoneal administration (Example 1); format: in vivo, rat
Description: (§6) Formalin test is a typical pain sensation stimulating test. It is a method for determining an analgesic effect of drugs in which 50 μl of 2% formalin is injected into a foot pad of each experimental rat and the foot-lifting and foot-licking behavior of the rats is observed.
Ten male Wistar rats (6 weeks of age) were randomly divided into two groups, and one hour before injecting formalin, the rats in the control group were given saline solution (1 ml/kg) and those in the lactoferrin group were given bovine lactoferrin dissolved in saline solution (100 ml/kg, Tatua Milk Industry Co., Ltd., purity: 87%) by intraperitoneal injection. After one hour, formalin solution was injected into the foot pad of each rat, and the foot-lifting and foot-licking behavior of each rat due to the stimulation of the pain sensation was measured for one hour (FIGS. 1 and 2).

male Wistar rats [12] = assay: formalin test, oral administration in feed for 4 weeks (Example 2); format: in vivo, rat; settings: 1% bovine lactoferrin in feed for 4 weeks
Description: as §6
Fourteen male Wistar rats (6 weeks of age) were randomly divided into two groups, and the rats in one group were fed standard feed powder for rodent animals (Clea Japan, Inc., CE-2) while those in the other group fed CE-2 with 1% bovine lactoferrin added thereto for 4 weeks. Four weeks later, formalin solution was injected into the foot pad of each rat, and the foot-lifting and foot-licking behavior of each rat due to the pain sensation stimulation was measured for one hour (FIGS. 3 and 4).

male Wistar rats [13] = assay: formalin test, enhancement of analgesic effect of morphine (Example 13); format: in vivo; settings: 10 ng/rat bovine lactoferrin with 1 to 10,000 ng/rat morphine; several 10- to 100-fold or more; FIG. 16
Description: The lactoferrin's effect of enhancing the analgesic effect of morphine was examined by administering 1 to 10,000 ng/rat of morphine concurrently with 10 ng/rat of bovine lactoferrin (▪) or alone (●) in the same manner as in Example 12. The results are shown in FIG. 16: the number of the foot-lifting times in the phase 1 pain (left graph) and the number of foot-lifting time in the phase 2 pain (right graph).

[14] = test system: adjuvant arthritis rat model; assay: adjuvant arthritis rat model, treatment in chronic phase (Example 6); format: in vivo
Description: Subsequently after Example 5, lactoferrin (100 mg/kg) was orally administered for 7 consecutive days starting from day 19 after the adjuvant treatment, when the adjuvant treated rats were in the chronic phase of inflammation.

rodent animals [15] = assay: hot plate test; format: in vivo; settings: administration before test
From the text: as §4

protease = assay: resistance of lactoferrin to protease; format: in vitro ADME
From the text: as §1

[16] = lactoferrin orally for 19 consecutive days
[17] = single oral dose of lactoferrin

B1: lactoferrin (protein, UniProt P24627 20-708, looked up)
Lactotransferrin: APRKNVRWCTISQPEWFKCRRWQWRMKKLGAPSITCVRRAFALECIRAIAEKKADAVTLDGGMVFEAGRDPYKLRPVAAEIYGTKESPQTHYYAVAVVKKGSNFQLDQLQGRKSCHTGLGRSAGWIIPMGILRPYLSWTESLEPLQGAVAKFFSASCVPCIDRQAYPNLCQLCKGEGENQCACSSREPYFGYSGAFKCLQDGAGDVAFVKETTVFENLPEKADRDQYELLCLNNSRAPVDAFKECHLAQVPSHAVVARSVDGKEDLIWKLLSKAQEKFGKNKSRSFQLFGSPPGQRDLLFKDSALGFLRIPSKVDSALYLGSRYLTTLKNLRETAEEVKARYTRVVWCAVGPEEQKKCQQWSQQSGQNVTCATASTTDDCIVLVLKGEADALNLDGGYIYTAGKCGLVPVLAENRKSSKHSSLDCVLRPTEGYLAVAVVKKANEGLTWNSLKDKKSCHTAVDRTAGWNIPMGLIVNQTGSCAFDEFFSQSCAPGADPKSRLCALCAGDDQGLDKCVPNSKEKYYGYTGAFRCLAEDVGDVAFVKNDTVWENTNGESTADWAKNLNREDFRLLCLDGTRKPVTEAQSCHLAVAPNHAVVSRSDRAAHVKQVLLHQQALFGKNGKNCPDKFCLFKSETKNLLFNDNTECLAKLGGRPTYEEYLGTEYVTAIANLKKCSTSPLLEACAFLTR
notes: bovine lactoferrin extracted from milk (Tatua Milk Industry Co., Ltd., purity 87%)
In the case of B1, the sensitivity to pepsin (pepsin) is reported as “highly sensitive”, the IL-10 production (IL-10 production; [16]) is reported as “increase” and the IL-10 production (IL-10 production; [17]) is reported as “increase”. For the same molecule, the TNF-α production (TNF-α production; [16]) was “significant inhibition”, the TNF-α production (TNF-α production; [17]) was “significant inhibition” and the “inhibition of phase 1 pain” value (male Wistar rats [1]; FIG. 5) was “inhibited dose-dependently”. For the same molecule, the “inhibition of phase 2 pain” value (male Wistar rats [1]; FIG. 5) was “inhibited dose-dependently”, the “duration of pain inhibiting effect after formalin injection” value (male Wistar rats [1]; FIGS. 7 and 8) was no less than 60 min and the “sensation of pain against the stimulation” value (rodent animals [2]) was “weakened sensation of pain”. The “phase 1 pain (number of foot-lifting times)” value (male Wistar rats [3]) was “inhibits”, the “phase 2 pain (number of foot-lifting times)” value (male Wistar rats [3]) was “inhibits” and the “analgesic effect of lactoferrin with naloxone” value ([4]; LF 100 mg/kg oral plus naloxone 3 mg/kg s.c. 30 mins before Flexion test) was “completely inhibited by naloxone”. The “sensitivity to pain in the joints (Flexion test)” value ([4]; single oral dose 10 to 100 mg/kg, 3 hrs before test, day 25 after adjuvant, FIG. 13) was “inhibited the sensitivity to pain in the joints dose-dependently”, the “abnormal findings, single dose acute toxicity” value (rats [5]) was “no abnormal findings were observed” and the “abnormal findings, single dose acute toxicity” value (beagles [6]) was “no abnormal findings were observed”. For the same molecule, the “abnormal findings, subacute toxicity” value (rats [7]) was “no abnormal findings were observed”, the “abnormal findings, subacute toxicity” value (beagles [8]) was “no abnormal findings were observed” and the “area of the hemorrhage per rat, decreased to” value (male Wistar rats [9]) was 79%. The “area of the ulcers, decreased to” value (male Wistar rats [9]) was “about 30%”, the “number of the large ulcers, decreased to” value (male Wistar rats [9]) was 50% and the “number of the ulcers, decreased to” value (male Wistar rats [9]) was 50%. For the same molecule, the “number, per rat, of hemorrhagic spots on the gastric mucosa, decreased to” value (male Wistar rats [9]) was 87%, the “swelling rate of the feet” value ([10]; 18 consecutive days from day 0, FIG. 10) was “significantly lower” and the “Flexion test (screams, pain index)” value ([10]; days 4 and 10 after adjuvant, FIG. 11) was “neither screamed nor showed pain sensation reaction”. For the same molecule, the foot-lifting behavior (male Wistar rats [11]; i.p. 100 ml/kg one hour before formalin, measured for one hour, vs control P<0.0001, FIG. 1) was “significantly decreased”, the “number of times rats lifted their feet within 50 minutes after formalin injection (phase 2 pain)” value (male Wistar rats [11]; i.p. one hour before formalin, vs control, FIG. 2) was “more significantly decreased” and the foot-licking behavior (male Wistar rats [11]; i.p., higher doses, data not shown) was “significantly decreased”. The foot-licking behavior (male Wistar rats [12]) was “significantly decreased”, the “phase 2 pain sensation stimulation induced by formalin” value (male Wistar rats [12]; FIG. 4) was “significantly inhibiting” and the “stimulation of the pain sensation (foot-lifting)” value (male Wistar rats [12]; vs control P<0.0001, FIG. 3) was “weakened the sensitivity to pain”. The “enhancement of the analgesic effect of morphine, phase 1 pain” value (male Wistar rats [13]) was 10- to 100 fold, the “enhancement of the analgesic effect of morphine, phase 2 pain” value (male Wistar rats [13]) was 10- to 100 fold and the “pain index in Flexion test” value ([14]; 7 consecutive days from day 19, LF vs control from day 1, Dex vs lactoferrin groups, FIG. 12C) was “significantly lower”. For the same molecule, the swelling of feet ([14]; 7 consecutive days from day 19 after adjuvant, LF 100 mg/kg oral (day 7 vs control), Dex 1 mg/kg (from day 1)) was “significantly lower”, the “sensation of pain against the stimulation” value (rodent animals [15]) was “weakened sensation of pain” and the resistance to protease (protease) was “significantly resistive”.
